Experimental data reported in the supplement of paper PMC9112550, “Optimization of the antimicrobial peptide Bac7 by deep mutational scanning” (BMC Biology, 2022).

test system: Escherichia coli TOP10; assay: shrunken log2 fold change of peptide-encoding DNA abundance (4.5 h post-induction vs induction); higher = less antimicrobial activity (less host growth inhibition); settings: time post-induction: 4.5 h; library: site-saturation at positions 5, 18, 19, 20
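Further: peptides expressed intracellularly from a pBAD plasmid library in pooled LB shake-flask culture, induced with 0.3% L-arabinose, DNA abundance read by NGS, three biological replicates, DESeq2 with apeglm shrinkage.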

Row | Sequence | shrunken log2 fold change
1 | RRIRYRPPRLPRPRPRPELCPRP | -0.403
2 | RRIRHRPPRLPRPRPRPFIHPRP | -0.1
3 | RRIRFRPPRLPRPRPRPPEEPRP | 0.153
4 | RRIRTRPPRLPRPRPRPYMYPRP | -0.767
5 | RRIRDRPPRLPRPRPRPFWIPRP | -0.408
6 | RRIRLRPPRLPRPRPRPMYIPRP | -0.172
7 | RRIRERPPRLPRPRPRPEFKPRP | 0.114
8 | RRIRMRPPRLPRPRPRPELFPRP | 3.28
9 | RRIRFRPPRLPRPRPRPRDAPRP | 0.541
10 | RRIRLRPPRLPRPRPRPCHYPRP | -0.0212
11 | RRIRIRPPRLPRPRPRPAPLPRP | 0.276
12 | RRIRCRPPRLPRPRPRPTASPRP | 0.266
13 | RRIRHRPPRLPRPRPRPPAGPRP | 0.344
14 | RRIRFRPPRLPRPRPRPDYQPRP | -0.268
15 | RRIRPRPPRLPRPRPRPCHLPRP | -0.148
16 | RRIRQRPPRLPRPRPRPHMTPRP | -0.391
17 | RRIRKRPPRLPRPRPRPLYRPRP | -0.0664
18 | RRIRTRPPRLPRPRPRPIGGPRP | -0.000462
19 | RRIRNRPPRLPRPRPRPFWLPRP | -0.189
20 | RRIRYRPPRLPRPRPRPLASPRP | -0.556
21 | RRIRSRPPRLPRPRPRPYVAPRP | -0.402
22 | RRIRNRPPRLPRPRPRPYKPPRP | -0.0731
23 | RRIRLRPPRLPRPRPRPYQAPRP | 0.0204
24 | RRIRVRPPRLPRPRPRPPPVPRP | 0.767
25 | RRIRERPPRLPRPRPRPKCIPRP | -0.464

Row | Sequence | shrunken log2 fold change
26 | RRIRWRPPRLPRPRPRPRWVPRP | 0.454
27 | RRIRFRPPRLPRPRPRPYCDPRP | -0.535
28 | RRIRHRPPRLPRPRPRPHQEPRP | -0.0212
29 | RRIRWRPPRLPRPRPRPRWKPRP | -0.0506
30 | RRIRCRPPRLPRPRPRPMRQPRP | 0.076
31 | RRIRVRPPRLPRPRPRPTACPRP | -0.124
32 | RRIRNRPPRLPRPRPRPEAKPRP | 0.302
33 | RRIRPRPPRLPRPRPRPQCAPRP | 0.167
34 | RRIRMRPPRLPRPRPRPDYNPRP | -0.21
35 | RRIRTRPPRLPRPRPRPYRFPRP | -0.0191
36 | RRIRFRPPRLPRPRPRPFEWPRP | -0.0458
37 | RRIRSRPPRLPRPRPRPYYKPRP | -0.892
38 | RRIRPRPPRLPRPRPRPCVSPRP | -0.0858
39 | RRIRQRPPRLPRPRPRPPPDPRP | 0.701
40 | RRIRYRPPRLPRPRPRPWVPPRP | -0.0218
41 | RRIRRRPPRLPRPRPRPAELPRP | -0.0392
42 | RRIRLRPPRLPRPRPRPSCYPRP | -0.164
43 | RRIRLRPPRLPRPRPRPFDDPRP | -0.00884
44 | RRIRQRPPRLPRPRPRPPPWPRP | 0.981
45 | RRIRVRPPRLPRPRPRPVDWPRP | 0.403
46 | RRIRERPPRLPRPRPRPQMAPRP | 0.00684
47 | RRIRHRPPRLPRPRPRPARLPRP | 0.568
48 | RRIRRRPPRLPRPRPRPMGGPRP | 0.083
49 | RRIRNRPPRLPRPRPRPNWYPRP | -0.647
50 | RRIRLRPPRLPRPRPRPMLIPRP | -0.0317

Row | Sequence | shrunken log2 fold change
51 | RRIRHRPPRLPRPRPRPPLTPRP | 0.162
52 | RRIRYRPPRLPRPRPRPKGGPRP | 0.0198
53 | RRIRWRPPRLPRPRPRPMPGPRP | 0.0623
54 | RRIRWRPPRLPRPRPRPNDEPRP | 0.0507
55 | RRIRQRPPRLPRPRPRPNWMPRP | 0.0507
56 | RRIRSRPPRLPRPRPRPENRPRP | -0.114
57 | RRIRNRPPRLPRPRPRPAHYPRP | -0.299
58 | RRIRSRPPRLPRPRPRPIAMPRP | -0.127
59 | RRIRCRPPRLPRPRPRPAKHPRP | -0.23
60 | RRIRQRPPRLPRPRPRPTMDPRP | 0.0884
61 | RRIRRRPPRLPRPRPRPTLGPRP | 0.138
62 | RRIRMRPPRLPRPRPRPYMFPRP | -0.493
63 | RRIRQRPPRLPRPRPRPMPDPRP | -0.0292
64 | RRIRNRPPRLPRPRPRPWNNPRP | -0.15
65 | RRIRCRPPRLPRPRPRPWVSPRP | -0.463
66 | RRIRQRPPRLPRPRPRPWGSPRP | -0.0209
67 | RRIRERPPRLPRPRPRPTCKPRP | -0.0222
68 | RRIRCRPPRLPRPRPRPHINPRP | -0.501
69 | RRIRRRPPRLPRPRPRPTVIPRP | -0.168
70 | RRIRHRPPRLPRPRPRPITRPRP | -0.0356
71 | RRIRQRPPRLPRPRPRPSCDPRP | 0.0694
72 | RRIRTRPPRLPRPRPRPPKPPRP | 0.304
73 | RRIRTRPPRLPRPRPRPKHIPRP | -0.823
74 | RRIRCRPPRLPRPRPRPYNPPRP | -1.15
75 | RRIRCRPPRLPRPRPRPARRPRP | 0.555

Row | Sequence | shrunken log2 fold change
76 | RRIRYRPPRLPRPRPRPEDGPRP | -0.141
77 | RRIRSRPPRLPRPRPRPDTLPRP | -0.126
78 | RRIRSRPPRLPRPRPRPGCKPRP | -0.00169
79 | RRIRPRPPRLPRPRPRPYEEPRP | -0.214
80 | RRIRERPPRLPRPRPRPCGCPRP | -0.0805
81 | RRIRFRPPRLPRPRPRPWCFPRP | -0.282
82 | RRIRKRPPRLPRPRPRPWRHPRP | 0.094
83 | RRIRVRPPRLPRPRPRPPLQPRP | 0.272
84 | RRIRIRPPRLPRPRPRPDIKPRP | -0.576
85 | RRIRTRPPRLPRPRPRPEMHPRP | -0.149
86 | RRIRVRPPRLPRPRPRPQDFPRP | 0.00129
87 | RRIRPRPPRLPRPRPRPTIQPRP | -0.101
88 | RRIRLRPPRLPRPRPRPTMEPRP | 0.274
89 | RRIRKRPPRLPRPRPRPRVYPRP | 0.307
90 | RRIRYRPPRLPRPRPRPCLSPRP | -1.24
91 | RRIRARPPRLPRPRPRPNATPRP | 1.97
92 | RRIRARPPRLPRPRPRPYPWPRP | -0.32
93 | RRIRPRPPRLPRPRPRPLIHPRP | -0.472
94 | RRIRVRPPRLPRPRPRPERQPRP | 0.514
95 | RRIRDRPPRLPRPRPRPRPFPRP | 0.691
96 | RRIRVRPPRLPRPRPRPEWPPRP | 0.225
97 | RRIRRRPPRLPRPRPRPAQEPRP | 0.146
98 | RRIRNRPPRLPRPRPRPKWCPRP | -0.00686
99 | RRIRNRPPRLPRPRPRPIFAPRP | 0.111
100 | RRIRTRPPRLPRPRPRPDRQPRP | -0.0344

Row | Sequence | shrunken log2 fold change
101 | RRIRGRPPRLPRPRPRPLHRPRP | 0.187
102 | RRIRCRPPRLPRPRPRPMPFPRP | -0.0545
103 | RRIRTRPPRLPRPRPRPKLTPRP | 0.0272
104 | RRIRWRPPRLPRPRPRPDIPPRP | -0.367
105 | RRIRYRPPRLPRPRPRPMNSPRP | -0.0134
106 | RRIRVRPPRLPRPRPRPMTIPRP | -0.435
107 | RRIRKRPPRLPRPRPRPMLPPRP | 0.349
108 | RRIRKRPPRLPRPRPRPFSWPRP | 0.0937
109 | RRIRLRPPRLPRPRPRPGHEPRP | -0.0844
110 | RRIRERPPRLPRPRPRPDPLPRP | 0.00979
111 | RRIRVRPPRLPRPRPRPTSGPRP | 0.0674
112 | RRIRTRPPRLPRPRPRPNPRPRP | 0.23
113 | RRIRWRPPRLPRPRPRPSFFPRP | 0.0041
114 | RRIRNRPPRLPRPRPRPKMWPRP | 0.279
115 | RRIRQRPPRLPRPRPRPQQDPRP | 0.206
116 | RRIRHRPPRLPRPRPRPPCMPRP | -0.245
117 | RRIRARPPRLPRPRPRPFQMPRP | -0.0651
118 | RRIRTRPPRLPRPRPRPYFHPRP | -0.909
119 | RRIRKRPPRLPRPRPRPGIFPRP | 0.409
120 | RRIRCRPPRLPRPRPRPMVCPRP | -0.143
121 | RRIRRRPPRLPRPRPRPNEIPRP | -0.0559
122 | RRIRRRPPRLPRPRPRPALLPRP | -0.0136
123 | RRIRCRPPRLPRPRPRPKIHPRP | -0.558
124 | RRIRVRPPRLPRPRPRPARHPRP | 0.287
125 | RRIRPRPPRLPRPRPRPSDKPRP | -0.264

Row | Sequence | shrunken log2 fold change
126 | RRIRFRPPRLPRPRPRPALQPRP | -0.142
127 | RRIRIRPPRLPRPRPRPTCGPRP | -0.0476
128 | RRIRCRPPRLPRPRPRPFIGPRP | -0.228
129 | RRIRMRPPRLPRPRPRPDFQPRP | -0.0477
130 | RRIRPRPPRLPRPRPRPRGCPRP | 0.251
131 | RRIRRRPPRLPRPRPRPFEHPRP | -0.0715
132 | RRIRARPPRLPRPRPRPHHKPRP | -0.347
133 | RRIRFRPPRLPRPRPRPKSDPRP | 0.0639
134 | RRIRQRPPRLPRPRPRPDYPPRP | 0.00454
135 | RRIRHRPPRLPRPRPRPDTKPRP | 0.162
136 | RRIRERPPRLPRPRPRPWLWPRP | 0.239
137 | RRIRARPPRLPRPRPRPERGPRP | 0.305
138 | RRIRNRPPRLPRPRPRPRMAPRP | 0.424
139 | RRIRPRPPRLPRPRPRPFCIPRP | -0.463
140 | RRIRPRPPRLPRPRPRPNIYPRP | -0.69
141 | RRIRERPPRLPRPRPRPTIAPRP | -0.25
142 | RRIRQRPPRLPRPRPRPIKFPRP | -0.282
143 | RRIRYRPPRLPRPRPRPWMFPRP | -0.273
144 | RRIRIRPPRLPRPRPRPLRDPRP | 0.0322
145 | RRIRHRPPRLPRPRPRPPVYPRP | 0.118
146 | RRIRERPPRLPRPRPRPMHMPRP | -0.000687
147 | RRIRMRPPRLPRPRPRPETQPRP | 0.359
148 | RRIRVRPPRLPRPRPRPNGCPRP | 0.0454
149 | RRIRIRPPRLPRPRPRPMGSPRP | -0.0432
150 | RRIRIRPPRLPRPRPRPIWDPRP | -0.282
